Laboratory results taken from publication PMC12198324.

Legend:
[1] = molecular target: rat µ opioid receptor (HA-µOR), stably expressed in HEK293 cells (rat) (UniProt P33535); assay: radioligand binding; competition with 5 nM [3H]-naloxone as tracer; 20 µg total membranes of HEK293-µOR cells in DMEM, 37 °C, 1 h, filtration over GF/C filters; Ki
[2] = molecular target: rat µ opioid receptor (HA-µOR), stably expressed in HEK293 cells (rat) (UniProt P33535)

UniProt P33535, sequence (P33535 whole entry): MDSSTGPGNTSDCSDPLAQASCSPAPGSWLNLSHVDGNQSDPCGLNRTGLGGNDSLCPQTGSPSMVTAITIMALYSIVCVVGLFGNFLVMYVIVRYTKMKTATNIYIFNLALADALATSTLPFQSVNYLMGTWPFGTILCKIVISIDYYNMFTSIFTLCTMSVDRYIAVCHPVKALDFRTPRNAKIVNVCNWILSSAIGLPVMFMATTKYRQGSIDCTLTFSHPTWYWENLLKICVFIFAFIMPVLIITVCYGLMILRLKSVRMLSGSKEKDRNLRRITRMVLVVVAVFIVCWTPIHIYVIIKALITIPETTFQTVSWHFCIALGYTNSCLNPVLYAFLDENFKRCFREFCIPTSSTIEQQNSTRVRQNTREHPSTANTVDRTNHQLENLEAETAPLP

endomorphin-1 (peptide) was tested, and the Ki [1] was 39.7 nM, the ERK-1/2 phosphorylation after 2.5 min in HEK293-µOR cells (western blot), EC50 [2] was 5.8 nM and the inhibition of FSK (10 µM) induced cAMP accumulation in HEK293-µOR cells, EC50 [2] was 4.17 nM.
